Test results reported in the nanobody polyreactivity screen of Harvey et al. (2022).

Assay: yeast display, Sf9 membrane polyspecificity reagent, FACS + sequencing; frameworks hold sequencing errors
Procedure, shortened: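 Nanobodies came from a synthetic yeast display library in Saccharomyces cerevisiae BJ5465, induced with galactose for 36–48 hours and stained for 1 hour at 4 °C with 10% biotinylated, detergent-solubilized Sf9 membrane reagent. Cells were enriched on streptavidin microbeads and then FACS-sorted, with low and high (top ~1%) gates set on anti-HA fluorescence for expression and streptavidin fluorescence for reagent binding. Each polyreactivity label reflects the gate a clone came from. Genes were amplified by colony PCR, sequenced by MiSeq 2 × 250 and filtered by CDR length.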

Sequence	polyreactivity (PSR sort gate)
QVQLVESGGGLVQAGGSLRLSCAASGFTFYVNAMGWYRQAPGKEREFVAAISASGASTRYADSVKGRFTISRDNAKNTVYLQMNSLKPEDTAVYYCAADAPAWILEAYGYWGQGTQVTVSS	low polyreactivity
QVQLVDSGGGLVQAGGRLLLSCSDSGINIPYYAMGWYRQAPGKERELVASISYDGTSSYYADSVKGRFTISRDNAKNTVYLHLNSLKPEDTAVYYCAPVPWWPRASYSMDYWGQGTQVTLSS	low polyreactivity
QVQLVESGGGLVQAGGSLRLSCAASGSIFNVYAMGWYRQAPGKERELVAAISSSGARTYYADSVKGRFTISRDNAKNTVYLQMNSLKPEDTAVYYCAARSILIRSGGGYPSVWRNYWGQGTQVTVSS	high polyreactivity
QFQLEESGGGLVQAGGSIRLSCAASGFILDSYGMGWYRQAPGTERELVAAISQSDVSTYYADSVNGRYTISRDNAKNTVYLHMNSLKPEDTAVYYCAADRGGLRWFWQVLFDYWGQGTQVTVSS	low polyreactivity
QVQLVESGGGLVQAGGSLRLSCAASGFIFAANAMGRYRQAPGKEREMVAAISESGGSTYYADSVKGRFTISRDNAKNTVYLQLNSLKPEDTAVYYCNADIVWSPVLGEYYYWGQGTQVTVSS	high polyreactivity
QVQLVESGGGLVQAGGSLRLSCAASGFIFANNAMVWYRQAPGKERELVAVISQRGGRTYYADSVKGRFTISRDNAKNTVYLQMNSLKPADTAVYYCAASYSIAYVSPRNWHDYWGQGTQVTVSS	low polyreactivity
QVQLVESGAGLVQAGGSLRLSCAASGNTFGTYAMGGSRQAPGKERELVASISKRAGSTYYADSVKGRFTISRDNAKNTVYLQMNSLKPEDTAVYYCAASSWDTFDYWGQGTQVTVSS	high polyreactivity
QVQLVESGGGLVQAGGSLRLSCAASGIIINTYLMGWYRQAPGKERELVAAISRRGGSTYYADSVKGRFTISRDNAKITVYLQMNSLKPEDTAFYYCAADVLYQQAGTYYWGQGTQVNVSS	high polyreactivity
QDQLEESGGGLVQAGGSLRLSCAASGRMFNSYAMGWYRQAPGKERELVAAISFSGGSTYYADSVKGRFTISRDNAKNTVYLQMNSLKPEDTAVYYCNAVTAVDTAHDYWGQGTQVTVSS	high polyreactivity
QVQLVESGGGLVQEGGSLRLICAASGNTSPFYSMGWYRQAPGKERELVAAISANGGSTTYADSVKGRFTISRDNAKNTVYLQMNSLKTEVTAVYYCNTYYWYSGSPYVYWGQGTQVTVSS	low polyreactivity
QVQLVESGGGLVQAGGSLRLSCAASGSTLGYNVMGCYIQAPGKERELVAAISGDGSTNYADSVKGRFTISRDNAKNTVYLQMNSLKPEDTAVYYCAARPGWFAGYEYWGQGTQVTVSS	low polyreactivity
QVQLVESGGRLVQAGGSLRISSAASGFIFYKYTMGWYRQAPGKERELVAAITRSGGSTYYADSVKGRCTISRDNAKNTVYLQMNSLKPEDTAVYYCAATQSFRRNYDYWGQGTQVTVSS	high polyreactivity
QVQLVESGGGLVQAGGSLRLSCAASGTFVSYVMGWYSQPPGKERELVAAINVRGASTYYADSVKGRFTISRDNAKITVYLQMNTLKPEDTAVYYCATEYVSGPEYDYWGQGTQVTVSS	low polyreactivity
QVQLVESGGVLVQAGGSLRLSCAASGSTLGGNAMGWYRQAPGKEMELVAAITSSAGSTYYADSVKGRFTISRDNAKNTVYLQMNSLKPEDTAVYYCDADYSRDEYDYWGQGTQVTVSS	low polyreactivity
QRQLVESGGGLVQAGGSLRLSCAASGFIFDSNAMGRYRQEPGKERELVAAFAARGGSTYYADSVKGRFTISRDYAKHTLYLQMNSLKPEETAVYNCNAVYIVGGYWGQGTQVTVSS	high polyreactivity
QVQLVESGGGLVQAGGSLRLSCAASGRTFHIYAMGWYRQAPGKERELLAAINYSGGSTYYADSVKGRFTISRDNAKNSVYLQMNSLKPEDTAVLYCAAVVYNVPWWFEYDYWGQGTQVTVSS	low polyreactivity
QVQLVESGGRLVQARGSLSLSCAASGRTFLRYAMGWYRQAPGKERELVAAISQRGGSTYYADSVKGRFTISRDNAKNTVYLQMNRLKPEDTAVYYCAADFPSSQAVDSWGQGTQVTVSS	high polyreactivity
QVQLVESGGGLVQAGGRLRLSCAASGSIFRRYAMGWYRQEPGKERELVAVITTDGSTYYADSVKGRFTISRDNAKNTVYLQMNSLKPEDTAVYYCAAEVYVIGDSGYDYWGQGTQVTVSS	low polyreactivity
QGQLVESGGGLVQAGGSLRLSCAASGYIFDWYAMGWYRQAPGKEREFVAAISGSDGSTYYADSVKGRFTISRDNAKNTVYLQMNSLKPEDSAVYYCAADPYYGEMEYWGQGTQVTVSS	low polyreactivity
QVQLVESGGGIVQAGGSLRLSCAASGFIFGSYAMGWYRQAPGKERELVAAINSVDRTYYADSVKGRFTISRDNAKNTVYLQMNSLKPEDTAVYYCAATIAPTPGYIIYDYWGQGTQVTVSS	high polyreactivity
QVQLVASGGGLVQAGGSLRLSCAASGSIFRFNPMGWSRHEPGKERELVAAISQSGSSTYYADSLKGRFTISRDNAKNTVYLQMNSLKPEDTAVYYCNVYTYQPYRMDLWRQGTQVTVSS	high polyreactivity
QVQLVESGGGLVQAGGSLRLSCAASGRTFYYYAMGWYRQAPGKERELVAGISWSAGSTYYADSVKGRFTISRDYAKNTVYLQMNSLKPEDTAVYYCAARYWQSYRSQVTHSSTLDYWGQGTQVTVSS	low polyreactivity

Sequence	polyreactivity (PSR sort gate)
QVQLVESGGGLVQAGGSLRLSCAASGRIGRNAMGWYRQAPVKERELVATISWSAGRTFYADSVKGRFTISRDNAKNTVYLQMNSLKPEDTAVYYCAAGGWQRGYYWGQGTQVTVSS	high polyreactivity
QVQLLESGGGLVLAGGRIRLSCAASGRTYRYTMGWNRQSPGKERELVAAISRSGGSTYYADSVKGRFTISRDNAKNSFYLQMNSLKPEDTAVYYCAKVIYRYNETYDYWGQGTQVTVSS	high polyreactivity
QVQLVESGGGLVQAGGSLRLSCAASGRIFKSYAMGWYRQAPGKERELVAAISRGGRTNYADSVKGRFTISRDNAKNTVYLQMNSLKPEVTAVYYCAARFVVQGHSSPYDYWGQGTQVTVSS	high polyreactivity
QVQLVESGGGLVQAGGSLRLSCAASGRTFSGYAMGWYRQAPGKEREFVAAITSSGGSTYYADSVKGRFTISRDNAKNTVYLQMNSLKPEDTAVYYCAARIRHFSVGYYYWGQGTQVTVSS	high polyreactivity
QVQLVESGGGLVQAGGSLRLSCAAYGSIFLYNALGGYIQAPGKEMELVADITSAGRTYYADSVKGRFTISRDNAKNTVYLQMNSLKPEDTAVYYCNKDYQYHFSWYGYWGQGTQVTVSS	low polyreactivity
QVQLVESGGGLVQAGGSLRLSCASSGSTFAYYVMGRYIHAPGKEWELVAAISRGGRTYYADSVKGRFTISRDNAKNTVYFQLNSLKPEDTAVYYCAAEGASLAKYDYCGQGTQVTVSS	low polyreactivity
QVQLVESGGGLVQAGGSLRLSCAASGSTFTTYAMGWYRQAPGKERELVAAITVDGGGTYYADSVKGRFTISRDNAKNTVYLQMNSLKPVDTAVYYCAAVTKLGYPPVNHLEDDYWGQGTQVTVSS	low polyreactivity
QVQHVESGGGVVQAGGSLRLSCAASGIIFPRNALGWYRQAPGKERELVAAIRSSGGTTYYADSVKGRFTISRDNAKNTVYLQMNSLKPEDTAVFYCAAVTTSKFNYWGQGTQVTVSS	low polyreactivity
QVQLVESGGGLVQAGGSLRLSCAASGNTFYINTMGWYRQAPGKEREFVAAITWSGGPTYYADSVKGRFTISRDNAKNTVYLQMNSLKPEDTAVYYCAADSRGEDYYYWGQGTQVTVSS	high polyreactivity
QDQLVESGGGLVQAGGRLRLSCAASGLIFENYAMGWYRQSPGKERDLVAAITTSGGSTYYADSVKGRFTISRDNAKNTVYLQMNSLKPEDTAVYDCAAVGVRSRYYGYDYWGQGTLVTVSS	high polyreactivity
QVQLVESGGGLVQAGGSLRLSCAASGRIFSRNAMGWYRQAPGKERELVAAISRTGGSTYYADSVKGRFTISRDNAKNTVYLQMNSLKPEDTAVYYCADAYYRKSSYGQIVEYDYWGQGTQVTVSS	high polyreactivity
QVQLVESGGGLVQAGGSLRLSCAASGRIFKTYAMGWYRPAPGTERELVAGISWRGGSTYYADSVKGRFTISRDNAKNTVYLQMNSLKPEDTAVYYCAADDTYTRYDYWGQGTQVTVSS	high polyreactivity
QVQLVESGGGLVQAGGSLRLSCAASGLTFEKYAMGWYRQAPGKEREMVAAISQDGGSTYYADSVKGRFTISRDNAKNTVYLQMNSLKPEDTAVYYCAAEDPDSWLPWDLFYYWGQGTQVTVSS	low polyreactivity
QDQLVESGGGLVQAGGSLRLSCAASGYTFKAYAMVWYRQAPGKERELVDAISRGGRTNYADSVKGRFTISRDNAKNTVYLQMNSLKPEDTAVYYCNTQRQLGVRFYDRSRQGDYWGQGTQVTVSS	high polyreactivity
QVQLVESGGGLVQAGGSLRLSCAASGSTFHRYAMGWYRQAPGKERELVATITSRGGITYYADSVKGRFTISRDNSKNTVYLQMNSLNPEDTALYYCNTEDGTTPQYGYDQGMYYWGQGTQVTVSS	low polyreactivity
QVQLVESGGGLVQAGGSLRLSCAASGITFVYYAMGWYRQAPGKERELVAAISKNGGSTYYADSVKGRFTISRDNAMNTVYLQMNSLKPEDTAVYYCAAEEGYPWVRYNYWGQGPQVTVSS	high polyreactivity
QVQLVESGGGLVQAGGSLRLSCAASGRIFYFYAMGWYRQAPGKERELVASISSGGITNYADSVKGRFTISRDNAKNTVYLQMNSLKPEDTAVYYCAADYGYYSRLYYWGQGTQVTVSS	low polyreactivity
QVQLVESGGGLVQAGGSLRLSCAASGRTFFPYAMGWYRQAPGKEREFVAAITKTDDSTYYADSVKGRFTISRDNAKNTVYLQMNSLKPEDTAVYYCAADTSRSVSVFIVWYWLGYWGQGTQVTVSS	low polyreactivity
QVQLVESGGGLVQAGGSLRLSCAASGITFAYYAMGRSRQAPGKERELVAAIRWSGGDTYYADSVKGRFTISRDNAKNTVYLQMNSLKPEDTAVYYCAADTTWGYDYWGQGTQVTVSS	low polyreactivity
QVQLVESGGGLVQAGGSLRLSCAASGLIFTYYAMGWYRQAPGKERELVAGISSGTNTNYADSVKGRFTISRDNAKNTVYLQMNSLKPEDTAVYYCAKTRGYQFVAYGYWGQGTQVTVSS	low polyreactivity
QVQLVESGGGLVQAGGSLRLSCAASGRTFGYNAMGWYREAPGKERELVAAITLGGITHYADSVKGRFTISRDNAKNTVYLQMNSLKPEDTAVYYCAKRGPYYNDDEYYWGQGTQVTVSS	low polyreactivity
